Experimental findings from EP3221371B1, “MONOLITHS” (Monolythix, Inc., priority 2014, dated 2016) are described below.

In the experiment the test system is alpha-lactalbumin. Put plainly: Monolith mediated proteolysis with covalently grafted proteinase K, HPLC. The format is biochemical. To be noted: 65 °C for 2 hrs plus 30 minutes; HPLC (Figure 4). As to the method:
160 mg/mL EDAC stock was dissolved in dry DMSO. 35 µL of this stock was added to 15 µL of 200 mM MES pH 7.0 and 20 µL 10mg/mL Proteinase K in PBS. The solution was added to a 20 mg disc carboxy monolith polymeric matrix (1:2:1 TEGDMA:EGDMA:HEMA plus 2.0% MAA). The disc was incubated for 1 hr at room temperature. The reaction was then quenched with 5 µL of 30 mg/mL glycine, pH 7.0 for 15 minutes at room temperature. The disc was then washed 3x in 1x PBS and held in 1X PBS for 4 days at 4 °C.
Alpha-lactalbumin substrate was dissolved at 10 mg/mL in 1x PBS. The proteinase K coupled disc was cut into equal 8 pie-shaped pieces. For each assay, one pie piece was placed point side down into a 0.5 mL microfuge tube. For each tube, 27 µL 10mg/mL lactalbumin solution or 1X PBS, 3 µL 5mM CaSO4, was added. The tubes were closed and incubated at 65 °C for 2 hrs. An additional 50 µL deionized distilled water, was added, the tubes closed, and incubated at 65 °C for an additional 30 minutes.

B1: proteinase K: Proteinase K covalently grafted with EDAC to carboxy monolith disc (1:2:1 TEGDMA:EGDMA:HEMA plus 2.0% MAA) (conjugate, UniProt P06873 106-384, looked up)
Proteinase K: AAQTNAPWGLARISSTSPGTSTYYYDESAGQGSCVYVIDTGIEASHPEFEGRAQMVKTYYYSSRDGNGHGTHCAGTVGSRTYGVAKKTQLFGVKVLDDNGSGQYSTIIAGMDFVASDKNNRNCPKGVVASLSLGGGYSSSVNSAAARLQSSGVMVAVAAGNNNADARNYSPASEPSVCTVGASDRYDRRSSFSNYGSVLDIFGPGTSILSTWIGGSTRSISGTSMATPHVAGLAAYLMTLGKTTAASACRYIADTANKGDLSNIPFGTVNLLAYNNYQA
modifications: EDAC-grafted to carboxy monolith disc
As for B1, the degradation of alpha-lactalbumin result is on record as “fully degraded”.
